Measurements published in patent US20230272114A1.

Experiments:
Experiment in all cases: Biacore SPR
[1] = target: human V158 FcγRIIIa (human) (UniProt P08637)
[2] = target: human FcγRI (human) (UniProt P12314)
[3] = target: recombinant human FcγRIIb protein (R&D Systems) (human) (UniProt P31994)
[4] = target: human H131 FcγRIIa (human) (UniProt P12318)

Sequence of human FcγRI (human) (P12314 16-288): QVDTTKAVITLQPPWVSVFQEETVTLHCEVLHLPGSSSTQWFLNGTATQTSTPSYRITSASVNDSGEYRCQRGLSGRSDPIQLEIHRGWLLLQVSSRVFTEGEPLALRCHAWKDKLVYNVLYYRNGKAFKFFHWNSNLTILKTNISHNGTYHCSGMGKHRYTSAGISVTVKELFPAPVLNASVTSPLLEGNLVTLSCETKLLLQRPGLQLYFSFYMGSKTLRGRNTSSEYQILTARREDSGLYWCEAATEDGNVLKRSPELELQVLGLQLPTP
Sequence of recombinant human FcγRIIb protein (R&D Systems) (human) (P31994 46-217): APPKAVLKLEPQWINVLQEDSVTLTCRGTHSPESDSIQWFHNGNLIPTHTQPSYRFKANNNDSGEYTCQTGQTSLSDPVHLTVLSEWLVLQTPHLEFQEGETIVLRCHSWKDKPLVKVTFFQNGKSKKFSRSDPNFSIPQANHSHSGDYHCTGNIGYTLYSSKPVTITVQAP

- Kd [1]: 62 nM
- Kd [2]: 0.17 nM
- Kd [3]: 12 nM
- Kd [4]: 700 nM
Substance: anti-CD19 antibody HuAM4G7 IgG1 Fc variant S239D/S267E
